# Experimental data as given in US20250249113A1 (DEBIOPHARM RESEARCH AND MANUFACTURING S A, published 2025).
# Primed or numbered codes have the meaning given here. Side-chain parts run from the residue outwards. PEG4′ = not defined here; Mal = not defined here
# Biological target: recombinant human Cathepsin B (human, UniProt P07858 80-333)
# Assay: cell-based or functional assay
binder,measurement,value
{DM1-Mal}-FKK([PEG4′-Mal-Cys-Ac])F-OH (reading uncertain; also: printed as DM1-Mal-Phe-Lys-Lys(PEG4-Mal-Cys-Ac)-Phe-OH) [Compound 5: DM1-Mal-Phe-Lys-Lys(PEG4-Mal-Cys-Ac)-Phe-OH],"Cat B-induced drug release, fold faster than the reference Cys-MC-Val-Cit-PABC-MMAF",20 times
